US20260000780A1, “B-LYMPHOCYTE SPECIFIC AMATOXIN ANTIBODY CONJUGATES” (priority 2021, published 2026)

B1: conjugate XXVI (conjugate)
heavy: EIQLQQSGPELVKPGASVKVSCKASGYSFTDYNMYWVKQSHGKSLEWIGYIDPYNGDTTYNQKFKGKATLTVDKSSSTAFIHLNSLTSEDSAVYYCARSPYGHYAMDYWGQGTSVTVSSASTKGPSVFPLAPSSKSTSGGTAALGCLVKDYFPEPVTVSWNSGALTSGVHTFPAVLQSSGLYSLSSVVTVPSSSLGTQTYICNVNHKPSNTKVDKKVEPKSCDKTHTCPPCPAPEAAGGPSVFLFPPKPKDTLMISRTPEVTCVVVCVSHEDPEVKFNWYVDGVEVHNAKTKPREEQYNSTYRVVSVLTVLHQDWLNGKEYKCKVSNKALPAPIEKTISKAKGQPREPQVYTLPPSREEMTKNQVSLTCLVKGFYPSDIAVEWESNGQPENNYKTTPPVLDSDGSFFLYSKLTVDKSRWQQGNVFSCSVMHEALHNHYTQKSLSLSPGK
light: DIVMTQSHKLLSTSVGDRVSITCKASQDVSTAVDWYQQKPGQSPKLLINWASTRHTGVPDRFTGSGSGTDYTLTISSMQAEDLALYYCRQHYSTPFTFGSGTKLEIKRTVAAPSVFIFPPSDEQLKSGTASVVCLLNNFYPREAKVQWKVDNALQSGNSQESVTEQDSKDSTYSLSSTLTLSKADYEKHKVYACEVTHQGLSSPVTKSFNRGEC
B2: Conjugate XXV (conjugate)
heavy chain: B1 heavy
light chain: B1 light
B3: Conjugate XXIV (conjugate)
heavy: B1 heavy
light: B1 light

How the values were obtained:
[1] = target: RNA-polymerase II (Homo sapiens, UniProt P24928+P30876); details: read-out: KD of the complex between amanitin and RNA-polymerase II; cited from earlier work
[2] = test system: MEC-2 tumor xenograft; test: Disseminated MEC-2 tumor xenograft model; format: in vivo, CB17 Scid mice; details: day 138 after treatment
Protocol: Cytotoxic efficacy studies in vivo were performed using various anti-CD37 antibody amatoxin conjugates in a disseminated MEC-2 tumor xenograft model over 140 days of treatment.
Tumor cell inoculation was done on day −3 by i.v. injection of 2.5×10^6 MEC-2 cells in CB17 Scid mice. Treatment was performed on day 0 by single dose i.v. injection at maximum tolerable dose (MTD) of ⅛ and MTD of 1/16 doses, respectively. Readout of the study was body weight and survival. Results are shown in FIG. 10 (body weight) and FIG. 11 (survival) at day 138 after treatment. All groups treated with conjugate gained body weight as normal, in contrast to the control group.
Treatment groups are defined in Table 4. Group 10 (chHH1-HDP-LALA-D265C, p.o., single dose; 10 mg/kg) was excluded from analysis. Group 11 (Ibrutinib) was treated with Ibrutinib p.o. 5x/w for 3 weeks at a dose 25 mg/kg.

[3] = test system: Richter syndrome cells (PDX RS1316); test: Richter's syndrome patient-derived xenograft (PDX) model, intravenous; format: in vivo, CB17 Scid mice; details: for efficacy in treating RS / tolerability of a single dose: single dose at different doses, 15 days post engraftment
Excerpt: The patient-derived xenograft (PDX) model for Richter's syndrome were adapted from Cancer Res (2018); 78 (13); 3413-20 with modifications.
Briefly, a total of 2×10^7 primary Richter syndrome cells from peripheral blood or lymph nodes were resuspended in Matrigel (BD Biosciences) and subcutaneously injected (double flank) in 8-week old CB17 Scid mice immunocompromised mice and left to engraft. Tumor masses were then collected, partially disrupted, and tumor cells reinjected as a single-cell suspension in Matrigel. These steps were repeated several times to obtain stable models of Richter syndrome.
For the intravenous model, 10^7 Richter syndrome cells purified from tumor masses were resuspended in PBS and injected in the tail vein of the mice. Mice were injected with a single dose of the conjugates XXIII, XXIV, or XXVI as indicated. All mice within the PBS control group died within 68 days post engraftment. One animal in the group receiving conjugate XXVI at a dose of 5 mg/kg i.v. died at day 90 post engraftment.
To assess residual RS disease activity in the organs of engrafted animals mice were euthanized and peripheral blood and organs (kidneys, spleen, bone marrow, lung, liver, and brain) collected and disease spread evaluated by flow cytometry, using anti-human antibodies (CD45PerCPCy5.5/CD19APC/CD20FITC).

[4] = test system: Raji-Luc tumor xenograft; test: Disseminated Raji-Luc tumor xenograft model; format: in vivo, CB17 Scid mice; details: single dose i.v., day 89 after treatment
Protocol: Cytotoxic efficacy studies in vivo were performed using various anti-CD37 antibody amatoxin conjugates in a disseminated Raji-Luc tumor xenograft model over 89 days of treatment.
Tumor cell inoculation was done on day-3 by i.v. injection of 2.5×10^6 Raji-Luc cells in CB17 Scid mice. Treatment was performed on day 0 by single dose i.v. injection at maximum tolerable dose (MTD) of 1/16 and MTD of 1/64 doses of cynomolgus MTD, respectively. Readout of the study was body weight, bioluminescence and survival. Results are shown in FIG. 10 (body weight), FIG. 11 (bioluminescence) and FIG. 12 (survival) at day 89 after treatment. All groups treated with conjugate gained body weight as normal, in contrast to the control group.

Row | Molecule | efficacy in treating RS [3] | tolerability of a single dose [3] | Alive animals ([4]; 0.188 mg/kg (MTD 1/64)) | Alive animals ([4]; 0.75 mg/kg (MTD 1/16)) | further results
1 | amanitin | – | – | – | – | Kd [1]: 3 nM
2 | C=CC(=O)N1CCC[C@@H](n2nc(-c3ccc(Oc4ccccc4)cc3)c3c(N)ncnc32)C1 [Ibrutinib, reference compound] | – | – | – | – | Alive animals ([2]; 25 mg/kg p.o. 5×/w for 3 weeks): 0/10
3 | B1 | effective in treating RS | well tolerated | – | – | animals that died in the treated group ([3]; 5 mg/kg i.v. single dose, n=4, death at day 90 post engraftment): One animal
4 | B2 | – | – | 9/10 | 10/10 | Alive animals ([2]; 0.94 mg/kg (MTD 1/16), i.v. single dose): 8/10; Alive animals ([2]; 1.88 mg/kg (MTD 1/8), i.v. single dose): 9/10
5 | B3 | effective in treating RS | well tolerated | 9/10 | 10/10 | Alive animals ([2]; 1.25 mg/kg (MTD 1/16), i.v. single dose): 4/10; Alive animals ([2]; 2.5 mg/kg (MTD 1/8), i.v. single dose): 6/10; residual RS disease activity in organs (flow cytometry CD45/CD19/CD20) ([3]; single dose, 5 mg): significantly reduce
